Results reported in US20240254229A1 (Molecular Partners, published 2024).

T1: human scCD3εγ (scCD3εγ_Avi-Bio) (human, biotin on the C-terminal Avi-tag (in vitro, BirA) where the biotinylated form was used)
T1 construct: Used for all SPR and HTRF results on human CD3; also called recombinant human CD3; human CD3
T1 chain: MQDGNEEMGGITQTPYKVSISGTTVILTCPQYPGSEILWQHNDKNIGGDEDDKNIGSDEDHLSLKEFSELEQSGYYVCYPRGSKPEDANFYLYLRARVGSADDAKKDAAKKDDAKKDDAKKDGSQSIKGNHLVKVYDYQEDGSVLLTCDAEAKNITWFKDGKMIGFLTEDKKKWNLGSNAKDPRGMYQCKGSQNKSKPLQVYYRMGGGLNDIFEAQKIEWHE

T2: biotinylated extracellular domains of human CD123 (uniprot ID 26951), Fc format (human, UniProt P26951 19-305, biotinylated)
T2 construct: extracellular domain
T2 sequence (looked up): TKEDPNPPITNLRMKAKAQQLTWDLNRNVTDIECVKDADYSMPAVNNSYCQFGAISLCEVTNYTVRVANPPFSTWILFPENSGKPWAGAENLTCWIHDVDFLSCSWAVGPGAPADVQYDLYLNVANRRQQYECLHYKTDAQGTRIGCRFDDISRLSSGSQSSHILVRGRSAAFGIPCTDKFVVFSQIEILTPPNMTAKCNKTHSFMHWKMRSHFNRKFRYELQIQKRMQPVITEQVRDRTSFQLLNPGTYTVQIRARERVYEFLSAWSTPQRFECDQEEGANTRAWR


How the values were obtained:
[1] = target: T3, biotinylated extracellular domain of human CD33 (SEQ ID NO: 87), Fc and Avi tagged (human, UniProt P20138 18-259, biotinylated with BirA-GST (Avi tag)); test: crude extract HTRF, 6 nM biotinylated hCD33
T3 construct: also called hCD33; human target hCD33
T3 sequence (P20138 18-259 R69G): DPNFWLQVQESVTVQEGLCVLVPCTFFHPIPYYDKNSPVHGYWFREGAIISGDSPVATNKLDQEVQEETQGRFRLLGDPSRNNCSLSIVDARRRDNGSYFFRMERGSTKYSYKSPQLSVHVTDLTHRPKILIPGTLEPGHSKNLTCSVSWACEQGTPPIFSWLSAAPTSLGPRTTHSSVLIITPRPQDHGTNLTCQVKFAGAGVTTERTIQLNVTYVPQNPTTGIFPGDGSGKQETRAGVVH
Excerpt: Similarly, individual selected ankyrin repeat proteins specifically binding to hCD33 in solution were identified by a Homogeneous Time Resolved Fluorescence (HTRF) assay using crude extracts of ankyrin repeat protein-expressing Escherichia coli cells using standard protocols. Ankyrin repeat protein clones selected by ribosome display were cloned into derivatives of the pQE30 (Qiagen) expression vector (pMPDV045), which contains a C-terminal CD3 binding designed ankyrin repeat protein followed by a Flag tag, transformed into E. coli XL1-Blue (Stratagene), plated on LB-agar (containing 1% glucose and 50 μg/ml ampicillin) and then incubated overnight at 37° C. […]
The extract of each lysed clone was applied as a 1:1000 dilution (final concentration) in PBSTB (PBS supplemented with 0.1% Tween 20® and 0.2% (w/v) BSA, pH 7.4) together with 6 nM (final concentration) biotinylated hCD33 (full-length or splice variant of ECD CD33), 1:400 (final concentration) of anti-strep-Tb HTRF antibody-FRET donor conjugate (Cisbio) and 1:400 (final concentration) of anti-6His-D2 antibody FRET acceptor conjugate (Cisbio) to a well of 384 well plate and incubated for 60 minutes at RT. The HTRF was read-out on a Tecan M1000 using a 340 nm excitation wavelength and a 665±10 nm emission filter. […]

[2] = target: T1, human scCD3εγ (scCD3εγ_Avi-Bio); test: SPR (ProteOn), biotinylated scCD3εγ on NLC chip, DARPin as analyte
Experimental: The binding affinities of four purified ankyrin repeat proteins on recombinant human CD3 target were analyzed using a ProteOn instrument (BioRad) and the measurement was performed according standard procedures known to the person skilled in the art. For that, DARPin® protein #7, DARPin® protein #8 and DARPin® protein #9 and DARPin® protein #10 of the invention were subcloned and expressed as described above into derivatives of the pQE30 (Qiagen) expression vector, containing an N-terminal His-tag, CD33 and CD123 binding ankyrin repeat domains, followed by one of the four CD3 specific ankyrin repeat protein constructs.
(§1) Briefly, biotinylated human scCD3εγ was diluted in PBST (PBS, pH 7.4 containing 0.005% Tween 200) and coated on a NLC chip (BioRad) to a level of around 700-1400 resonance units (RU). The interaction of ankyrin repeat protein and human CD3 was then measured by injecting 300 μl running buffer (PBS, pH 7.4 containing 0.005% Tween 200) containing serial dilutions of ankyrin repeat proteins covering a concentration range between 64 nM and 4 nM for multi-trace SPR measurements, followed by a running buffer flow for at least 10 minutes at a constant flow rate of 60 μl/min (off-rate measurement). The regeneration was performed using 30 μl of 10 mM Glycine pH 2. The signals (i.e. resonance unit (RU) values) of the interspots and a reference injection (i.e. injection of running buffer only) were subtracted from the RU traces obtained after injection of ankyrin repeat protein (double-referencing). While binding was too weak for DARPin® protein #7, binding parameters (KD, on-rate, off-rate) against CD3 were determined for affinity matured constructs. On-rates (kₒₙ) and dissociation constants (KD) are given only as approximation because binding equilibrium was not appropriately reached even at highest samples concentration, leading to non-optimal fits for on-rates.
Dissociation constants (KD) were calculated from the estimated on- and off-rates using standard procedures known to the person skilled in the art.

[3] = target: T4, human CD3 on primary human pan-T cells (human, UniProt P07766 23-207; P09693 23-182; P04234 22-171; P20963 22-164); test: Mirrorball cytometry on primary human pan-T cells, 600 µM HSA
T4 construct: whole, on cells; Native complex on T cells isolated from PBMC; also called CD3 on Pan-T cells
T4 sequence (P07766 23-207, chain 1 of 4): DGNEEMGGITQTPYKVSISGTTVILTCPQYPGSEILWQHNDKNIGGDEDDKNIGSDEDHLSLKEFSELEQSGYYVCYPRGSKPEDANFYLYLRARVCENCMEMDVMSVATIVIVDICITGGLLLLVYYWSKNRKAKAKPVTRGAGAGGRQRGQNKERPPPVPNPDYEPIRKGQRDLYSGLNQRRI
T4 sequence (P09693 23-182, chain 2 of 4): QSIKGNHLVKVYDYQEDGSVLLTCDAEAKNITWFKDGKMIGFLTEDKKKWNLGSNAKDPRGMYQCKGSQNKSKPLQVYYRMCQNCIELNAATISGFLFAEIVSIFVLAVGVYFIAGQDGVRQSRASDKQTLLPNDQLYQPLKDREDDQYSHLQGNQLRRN
T4 sequence (P04234 22-171, chain 3 of 4): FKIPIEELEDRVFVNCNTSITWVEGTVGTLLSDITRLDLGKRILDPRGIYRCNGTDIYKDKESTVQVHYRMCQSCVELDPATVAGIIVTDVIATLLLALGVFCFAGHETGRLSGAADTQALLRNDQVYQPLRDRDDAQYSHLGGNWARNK
T4 sequence (P20963 22-164, chain 4 of 4): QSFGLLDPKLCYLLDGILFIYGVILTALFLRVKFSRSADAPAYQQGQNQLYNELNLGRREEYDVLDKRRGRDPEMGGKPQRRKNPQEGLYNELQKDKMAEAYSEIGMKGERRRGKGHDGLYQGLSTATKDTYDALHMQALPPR
Experimental: The determination of CD3 binding was performed with primary human T cells using Mirrorball laser scanning imaging cytometry. Therefore, primary T cells were isolated from human peripheral blood mononuclear cells (PBMCs) using a pan-T cell purification kit (Miltenyi Biotec). A titration of DARPin® protein #7, DARPin® protein #8 and DARPin® protein #9 and DARPin® protein #10, formatted into a trispecific format (including CD33 and CD123 binding ankyrin repeat domains), DARPin® protein #11, DARPin® protein #12, DARPin® protein #13 and DARPin® protein #14 UN tetraspecific format (including an additional ankyrin repeat domain binding specifically to human serum albumin) were incubated with 50′000 pan-T cells per well in presence of 600 μM human serum albumin (to mimic physiological serum concentration) for 30 minutes at 4° C. Two benchmark T-cell engagers, AMG330 and flotetuzumab were applied as controls, targeting CD33 or CD123. After washing, CD3 binding was detected by 1:100-diluted anti-penta-His Alexa Fluor 488 antibody (Qiagen). After 30 min incubation at 4° C., cells were washed and resuspended in Cytofix fixation buffer (BD Biosciences) and counterstained by 5 μM DRAQ5 (Abcam) for 15 min at RT. Median of mean fluorescence intensities of Alexa Fluor 488 binding on far-red counterstained cells were measured by Mirrorball using Cellista software (SPT Labtech) and data was plotted using GraphPad Prism 8.

[4] = target: T2, biotinylated extracellular domains of …; test: SPR (ProteOn), biotinylated target on chip
Experimental: as §1
(§2) The binding affinities of two purified ankyrin repeat proteins on recombinant human CD33 and CD123 target respectively were analyzed using a ProteOn instrument (BioRad) and the measurement was performed according standard procedures known to the person skilled in the art. For that, DARPin® protein #25 (with binding specificity for CD33 and CD3), DARPin® protein #26 (with binding specificity for CD123 and […]) of the invention were subcloned and expressed as described above into derivatives of the pQE30 (Qiagen) expression vector, containing an N-terminal His-tag, CD33 or CD123 binding ankyrin repeat domains respectively, followed by one of the four CD3 specific ankyrin repeat protein constructs. The following steps were performed as described in A above. Briefly, biotinylated extracellular domains of human CD33 (provided by Speed BioSystems, Lot no cat #YCP2045) as target protein was used for the assessment of DARPin® protein #25 and biotinylated extracellular domains of human (uniprot ID 26951) for the assessment of DARPin® protein #26 accordingly.

[5] = target: T5, biotinylated extracellular domains of human CD33 (Speed BioSystems, cat #YCP2045) (human, UniProt P20138 18-259, biotinylated); test: SPR (ProteOn), biotinylated target on chip
T5 construct: extracellular domain
T5 sequence (P20138 18-259): as the sequence (P20138 18-259 R69G) above, with G52R counted along it
Experimental: as §1, §2

binding result [1] | Kd [2] [nM] | koff [2] [s⁻¹] | kon [2] [M⁻¹ s⁻¹] | EC50 [3] [nM] | Binder | further results
binds |  |  |  |  | DARPin® protein #37 (designed binder, CD33-specific domain) DLGWKLLLAASRGQDDEVRILLAAGADVNAKDIDEGYTPLHIAAYYGHLEIVEVLLKAGADVNAKDRYGKTPLHLAAISGHEDIAEVLLKAGADVNAQDDKGDTPADLAADYGHEDIAEVLQKAA | 
binds |  |  |  |  | DARPin® protein #38 (designed binder, CD33-specific domain) DLGVKLLRAAFHGQDDEVRILLAAGADVNAKDTDGETPLHYAAQFGHLEIVEVLLKAGADVNAKDAYGATPLHWAAWHGHLEIVEVLLKAGADVNAQDVSGATPADLAAKVGHEDIAEVLQKAA | 

Second part, the binder before the results:

Binder | binding result [1] | Kd [2] [nM] | koff [2] [s⁻¹] | kon [2] [M⁻¹ s⁻¹] | EC50 [3] [nM] | further results
DARPin® protein #9 (designed binder, CD123-CD33-CD3 ankyrin repeat protein, no half-life extension; also called DARPin® #9; not shown: N-terminal His-tag) DLGKKLLEAARAGQDDEVRILMANGADVNALDWLGHTPLHLAAYEGHLEIVEVLLKNGADVNAIDDNNGFTPLHLAAIDGHLEIVEVLLKNGADVNAQDKFGKTAFDISIDNGNEDLAEILQKAAGSPTPTPTTPTPTPTTPTPTPTGSDLGDKLLLAATSGQDDEVRILLAAGADVNAKDYDGDTPLHLAADEGHLEIVEVLLKAGADVNAKDYSGSTPLHAAAAYGHLEIVEVLLKAGADVNAQDVFGYTPADLAAYVGHEDIAEVLQKAAGSPTPTPTTPTPTPTTPTPTPTGSDLGQKLLEAAWAGQDDEVRELLKAGADVNAKNSRGWTPLHTAAQTGHLEIFEVLLKAGADVNAKNDKRVTPLHLAAALGHLEIVEVLLKAGADVNARDSWGTTPADLAAKYGHQDIAEVLQKAA |  | ~15 | 0.0013 | ~89000 | 50 to 100 | 
DARPin® protein #10 (designed binder, CD123-CD33-CD3 ankyrin repeat protein, no half-life extension; also called DARPin® #10; not shown: N-terminal His-tag) DLGKKLLEAARAGQDDEVRILMANGADVNALDWLGHTPLHLAAYEGHLEIVEVLLKNGADVNAIDDNNGFTPLHLAAIDGHLEIVEVLLKNGADVNAQDKFGKTAFDISIDNGNEDLAEILQKAAGSPTPTPTTPTPTPTTPTPTPTGSDLGDKLLLAATSGQDDEVRILLAAGADVNAKDYDGDTPLHLAADEGHLEIVEVLLKAGADVNAKDYSGSTPLHAAAAYGHLEIVEVLLKAGADVNAQDVFGYTPADLAAYVGHEDIAEVLQKAAGSPTPTPTTPTPTPTTPTPTPTGSDLGQKLLEAAWAGQLDEVRILLKAGADVNAKNSRGWTPLHTAAQTGHLEIFEVLLKAGADVNAKTNKRVTPLHLAAALGHLEIVEVLLKAGADVNARDTWGTTPADLAAKYGHRDIAEVLQKAA |  | ~6 | 0.00041 | ~82000 | 5 to 15 | 
DARPin® protein #26 (designed binder, not shown: N-terminal His-tag) DLGKKLLEAARAGQDDEVRILMANGADVNALDWLGHTPLHLAAYEGHLEIVEVLLKNGADVNAIDDNNGFTPLHLAAIDGHLEIVEVLLKNGADVNAQDKFGKTAFDISIDNGNEDLAEILQKAAGSPTPTPTTPTPTPTTPTPTPTGSDLGQKLLEAAWAGQDDEVRILLAAGADVNAKNSRGWTPLHTAAQTGHLEIFEVLLKAGADVNAKNDKRVTPLHLAAALGHLEIVEVLLKAGADVNARDSWGTTPADLAAKYGHGDIAEVLQKLN |  |  |  |  |  | Kd [4]: 9.5 nM; koff [4]: 0.017 s⁻¹; kon [4]: 1.79e+06 M⁻¹ s⁻¹
DARPin® protein #25 (designed binder, CD33-CD3; not shown: N-terminal His-tag) DLGDKLLLAATSGQDDEVRILLAAGADVNAKDYDGDTPLHLAADEGHLEIVEVLLKAGADVNAKDYSGSTPLHAAAAYGHLEIVEVLLKAGADVNAQDVFGYTPADLAAYVGHEDIAEVLQKAAGSPTPTPTTPTPTPTTPTPTPTGSDLGQKLLEAAWAGQDDEVRILLAAGADVNAKNSRGWTPLHTAAQTGHLEIFEVLLKAGADVNAKNDKRVTPLHLAAALGHLEIVEVLLKAGADVNARDSWGTTPADLAAKYGHGDIAEVLQKLN |  |  |  |  |  | Kd [5]: 7.3 nM; koff [5]: 0.0304 s⁻¹; kon [5]: 4.2e+06 M⁻¹ s⁻¹
